“And” between values parts separate entries of the source, which are not always exact repeats. Equal entries are not always repeated.
Assays:
[1] = biological target: amyloid precursor protein C99 (UniProt P05067); experiment: SDS-PAGE with Western blot (SDS-stable oligomers); whole-cell expression samples of E. coli (0.8 OD600, autoinduction or IPTG), heated 4 min at 90°C in SDS dye, 4-20% gel, detected with antibody 6E10
[2] = biological target: amyloid precursor protein C99 (UniProt P05067); experiment: SDS-PAGE with Western blot (SDS-stable oligomers); SEC fractions of Ni-purified C99 in E. coli lipid pentyl-inulin nanodiscs (detergent-free), heated in SDS dye, 4-20% gel, detected with antibody 6E10

amyloid precursor protein C99 (from UniProt P05067 672-770) (domain or fragment)
stoichiometry N [1]: 2 and 3
stoichiometry N [2]: 3

— article PMC12363408
